Results on six sequences are retold here after the Immune Epitope Database (IEDB).

Assay [1] has as its target HLA-B*18:01. The experiment in a line: IEDB peptide-MHC binding, purified MHC/direct/fluorescence; filed as Kd, often an IC50 or EC50 that approximates it; ≥ and ≤ were set here for values at or beyond the usual limits of such assays.
Assay [2] addresses HLA-A*68:02. The description is as above.
Assay [3] addresses HLA-A*02:19. Described as above.
The target in assay [4] is HLA-B*46:01. Described as above.
The target of assay [5] is HLA-B*27:03. Described as above.
Assay [6] has as its target HLA-A*03:01. The assay is described as above.
Assay [7] has as its target HLA-B*51:01. The assay is described as above.
In assay [8] the target is HLA-A*02:03. Described as above.
The target of assay [9] is HLA-A*02:12. Described as above.
Assay [10] has as its target HLA-B*57:01. Described as above.
The target in assay [11] is HLA-B*15:01. The description is as above.
Assay [12] has as its target HLA-A*02:16. Described as above.
Assay [13] addresses HLA-B*39:01. Described as above.
Assay [14] addresses HLA-A*02:11. The assay is described as above.
In assay [15] the target is HLA-A*02:01. The description is as above.
Assay [16] concerns the target HLA-A*26:01. The assay is described as above.
The target of assay [17] is HLA-A*29:02. The assay is described as above.
In assay [18] the target is HLA-A*24:03. The description is as above.
Assay [19] has as its target HLA-A*23:01. Described as above.
Assay [20] concerns the target HLA-B*18:01. The experiment in a line: IEDB peptide-MHC binding, purified MHC/competitive/fluorescence; filed as Kd, often an IC50 or EC50 that approximates it; ≥ and ≤ were set here for values at or beyond the usual limits of such assays.
Assay [21] has as its target HLA-B*46:01. The assay is described as above.
The target in assay [22] is HLA-B*51:01. The description is as above.
Assay [23] addresses HLA-A*69:01. The assay is described as above.
In assay [24] the target is HLA-B*57:01. The description is as above.
Assay [25] addresses HLA-B*15:01. Described as above.
Assay [26] concerns the target HLA-B*39:01. The assay is described as above.
Assay [27] has as its target HLA-B*27:05. Described as above.
Assay [28] has as its target HLA-A*02:01. Described as above.
For assay [29], the target named is HLA-A*26:01. The description is as above.
Assay [30] concerns the target HLA-B*15:17. The assay is described as above. The settings on record: source organism: Orthohantavirus negraense.
For assay [31], the target named is HLA-A*69:01. The assay is described as follows: IEDB peptide-MHC binding, purified MHC/direct/fluorescence; filed as Kd, often an IC50 or EC50 that approximates it; ≥ and ≤ were set here for values at or beyond the usual limits of such assays. Conditions: source organism: Bacillus cereus G9842.
The mark [32] stands for this setting: source organism: Mycobacterium tuberculosis str. Haarlem.
Where [33] appears, read: source organism: Rickettsia bellii RML369-C.
The mark [34] stands for this setting: source organism: Orthohantavirus tulaense.
The mark [35] stands for this setting: source organism: Entamoeba histolytica HM-1:IMSS.
The mark [36] stands for this setting: source organism: Orthohantavirus negraense.
The mark [37] stands for this setting: source organism: Bacillus cereus G9842.

One may read the Kd as a measure of binding affinity in units of concentration. Low readings indicate higher affinity, high ones lower affinity. Take LPVEYLQVP: the Kd in [1] (setting [32]), in [2] (setting [32]), in [3] (setting [32]), in assay [4] (setting [32]), in assay [5] (setting [32]) and in assay [6] (setting [32]) was at least 20 µM each time. The Kd in assay [7] (setting [32]), in assay [8] (setting [32]), in [9] (setting [32]), in assay [10] (setting [32]), in assay [11] (setting [32]) and in [12] (setting [32]) was at least 20 µM each time. In addition, the Kd in assay [13] (setting [32]), in assay [14] (setting [32]), in assay [15] (setting [32]) and in assay [16] (setting [32]) was at least 20 µM throughout.

As to NPLEIYQEI, the Kd in assay [1] (setting [33]) is at least 20 µM; in assay [3] (setting [33]) it was at least 20 µM; in assay [4] (setting [33]) it was at least 20 µM; in assay [5] (setting [33]), at least 20 µM; in assay [6] (setting [33]), at least 20 µM; in assay [7] (setting [33]), 0.132 µM. Moreover, the Kd in [17] (setting [33]), in [8] (setting [33]), in [9] (setting [33]), in assay [10] (setting [33]), in assay [11] (setting [33]) and in [18] (setting [33]) was at least 20 µM in each case. The Kd in [12] (setting [33]), in assay [13] (setting [33]), in assay [14] (setting [33]), in assay [15] (setting [33]) and in [16] (setting [33]) was at least 20 µM in each case.

Take RRAYSGKQY: the Kd in assay [2] (setting [34]), in assay [3] (setting [34]), in assay [6] (setting [34]), in assay [17] (setting [34]), in [8] (setting [34]) and in [19] (setting [34]) was at least 20 µM each time. The Kd in assay [9] (setting [34]), in assay [18] (setting [34]), in assay [12] (setting [34]), in [14] (setting [34]), in assay [20] (source organism: Kurkino virus) and in [21] (source organism: Kurkino virus) was at least 20 µM throughout. The Kd is at least 20 µM in assay [22] (source organism: Kurkino virus); at least 20 µM in [23] (source organism: Kurkino virus); at least 20 µM in assay [24] (source organism: Kurkino virus); at least 20 µM in assay [25] (source organism: Kurkino virus); at least 20 µM in assay [26] (source organism: Kurkino virus); 0.23 µM in assay [27] (source organism: Kurkino virus). Also, the Kd in assay [28] (source organism: Kurkino virus) and in assay [29] (source organism: Kurkino virus) was at least 20 µM throughout.

Regarding VKINIFPLY, the Kd in assay [2] (setting [35]), in [3] (setting [35]), in assay [4] (setting [35]), in assay [5] (setting [35]), in assay [6] (setting [35]) and in assay [7] (setting [35]) was at least 20 µM throughout. In addition, the Kd in [8] (setting [35]), in [9] (setting [35]), in assay [10] (setting [35]), in assay [12] (setting [35]), in assay [13] (setting [35]) and in assay [15] (setting [35]) was at least 20 µM each time. This sequence yielded a Kd in assay [16] (setting [35]) of at least 20 µM.

Consider RRFTQAIYD, for which the Kd in assay [2] (setting [36]), in assay [3] (setting [36]), in assay [6] (setting [36]), in assay [17] (setting [36]), in [8] (setting [36]) and in [19] (setting [36]) was at least 20 µM throughout. For the same sequence, the Kd in assay [9] (setting [36]), in [18] (setting [36]), in assay [12] (setting [36]), in [14] (setting [36]), in assay [20] (setting [36]) and in [21] (setting [36]) was at least 20 µM each time. The Kd in [22] (setting [36]) was at least 20 µM; in assay [23] (setting [36]) it was at least 20 µM; in assay [24] (setting [36]), at least 20 µM; in [25] (setting [36]), at least 20 µM; in [26] (setting [36]) it was at least 20 µM; in [27] (setting [36]) it was 0.317 µM. Also, the Kd in [28] (setting [36]), in assay [29] (setting [36]) and in assay [30] was at least 20 µM each time.

As to TQIPRQMVL, the Kd in [1] (setting [37]), in assay [2] (setting [37]), in assay [3] (setting [37]), in assay [4] (setting [37]), in [5] (setting [37]) and in assay [6] (setting [37]) was at least 20 µM each time. Besides, the Kd in [17] (setting [37]), in assay [31], in [9] (setting [37]), in [10] (setting [37]), in assay [18] (setting [37]) and in assay [12] (setting [37]) was at least 20 µM throughout. The Kd in assay [14] (setting [37]), in assay [15] (setting [37]) and in [16] (setting [37]) was at least 20 µM in each case.
